# Assay results reported in patent publication US20020197702A1.
# Legend:
# Assay in all cases: cell-based or functional assay
# [1] = molecular target: affinity purified membrane derived caspase-3 from 697 cell heavy membranes (human) (UniProt P42574)
# [2] = molecular target: r-caspase-3 (His)6 (human) (UniProt P42574)
# [3] = molecular target: T1, 697 Bcl-2 HM (caspase-1 treated) caspase (human) (UniProt P42574)
# T1 sequence 1: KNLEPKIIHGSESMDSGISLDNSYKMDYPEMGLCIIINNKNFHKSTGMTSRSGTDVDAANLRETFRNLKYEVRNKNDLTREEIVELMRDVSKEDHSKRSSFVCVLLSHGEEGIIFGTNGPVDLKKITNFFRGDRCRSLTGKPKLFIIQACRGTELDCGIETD
# T1 sequence 2: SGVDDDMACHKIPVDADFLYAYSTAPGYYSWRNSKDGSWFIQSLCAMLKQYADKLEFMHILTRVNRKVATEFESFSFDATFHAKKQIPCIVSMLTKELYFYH
# [4] = molecular target: T2, 697-neo HM (caspase-1 treated) caspase (human) (UniProt P42574)
# T2 sequence 1: T1 sequence 1
# T2 sequence 2: T1 sequence 2
# [5] = molecular target: 697-neo HM (spontaneous activity) caspase (human) (UniProt P42574)
Substance,"IC50, inhibition of DEVD-AMC cleavage activity [1]","IC50, inhibition of DEVD-AMC cleavage activity [2]","IC50, inhibition of DEVD-amc cleavage [3]","IC50, inhibition of DEVD-amc cleavage [4]","IC50, inhibition of DEVD-amc cleavage [5]"
Protein p35 (early p35 protein from Autographa californica nuclear polyhedrosis virus) (from UniProt P08160 1-299),0.074 nM,0.041 nM,–,–,–
YVAD-ald (peptide),–,–,> 10000 nM,> 10000 nM,> 10000 nM
